Like-named read-outs stand apart in the source and are kept apart here.
Key:
[1] = system: CCCCCCCCCCCCCCCC(=O)Oc1ccc([N+](=O)[O-])cc1; assay: purified protein; type: biochemical, Rhizopus microsporus; settings: pH 8.0, 40°C, emulsified substrate, Triton X-100 and gum arabic in the standard assay
[2] = system: CCCCCCCCCCCCCCCC(=O)Oc1ccc([N+](=O)[O-])cc1; assay: purified protein; settings: pH 8.0, 40°C, emulsified substrate, Triton X-100 and gum arabic in the standard assay

For “Rhizopus chinensis lipase (RCL; proRCLCNQ): N14Q (proRCLCN14Q)”, the enzymatic_activity (N-glycosylation at N14) was “decreases, kcat 60.70 to 24.82 s-1; Km 0.20 to 2.01 mM; kcat/Km 2.92*10^5 to 1.22*10^5 M-1 s-1”, the expression_or_secretion (N-glycosylation at N14) was “no change” and the stability_or_folding (N-glycosylation at N14) was “decreases”. For the same substance, the structure_or_conformation (N-glycosylation at N14) was “no change”.

With “Rhizopus chinensis lipase (RCL; proRCLCNQ): N14Q (proRCLCN14Q), 90% (v/v) organic solvents, 24 h” the stability_or_folding (N-glycosylation at N14) was “decreases, relative activity e.g. isooctane 78 ± 3.5% to 70 ± 3.0%; DMSO 58 ± 4.0% to 51 ± 4.2%”.

For “Rhizopus chinensis lipase (RCL; proRCLCNQ): N60Q (proRCLCN60Q), mRNA level by RT-PCR”, the other (N-glycosylation at N60) was “no change”.

“proRCLCNQ (Rhizopus microsporus var. chinensis; K92N/N74Q/R93Q)” gave a Km [1] of 190 ± 20 µM, a kcat [1] of 61.3 ± 2.5 s⁻¹ and a kcat/Km [1] of 311000 ± 61000 M⁻¹ s⁻¹.

With “proRCLCNQ (Rhizopus microsporus var. chinensis; K92N/N40Q/R93Q)” the Km ([1]; printed Km inconsistent with printed kcat/Km (tenfold), possible misprint) was 2010 ± 120 µM.

For “r27RCLC (Rhizopus microsporus var. chinensis)”, the Km [2] was 340 ± 100 µM, the kcat [2] was 122 ± 3.1 s⁻¹ and the kcat/Km [2] was 356000 ± 81000 M⁻¹ s⁻¹.

“proRCLCNQ (Rhizopus microsporus var. chinensis; K92N/R93Q)” showed a Km [1] of 200 ± 40 µM, a kcat [1] of 60.7 ± 2.2 s⁻¹ and a kcat/Km [1] of 292000 ± 55000 M⁻¹ s⁻¹.

For “Rhizopus chinensis lipase (RCL; proRCLCNQ): N48Q (proRCLCN48Q)”, the enzymatic_activity (N-glycosylation at N48) was “no change, kcat 60.70 vs 61.33 s-1; Km 0.20 vs 0.19 mM; kcat/Km 2.92*10^5 vs 3.11*10^5 M-1 s-1”, the expression_or_secretion (N-glycosylation at N48) was “no change” and the stability_or_folding (N-glycosylation at N48) was “no change, about 70% residual activity after 1 h at 50 °C for both”.

For “Rhizopus chinensis lipase (RCL; proRCLCNQ): N60Q (proRCLCN60Q)”, the expression_or_secretion (N-glycosylation at N60) was “abolishes”.

From article PMC4417512, “Role of N-linked glycosylation in the secretion and enzymatic properties of Rhizopus chinensis lipase expressed in Pichia pastoris” (Microbial Cell Factories, 2015)
